Reference: a protein production outcome set (Wang et al. 2014)

Test: label from the status in PepcDB records

Sequence | protein production
MLYKSVTESFNEFIIDRSDATCIRCKVCVRQCAYEVHAYEAKADALTEDNTLCIGCRRCSALCPTGAITIRSNEEVFKRNESWSNAHIRNLYAQADTGGILLAAMGNPAKYPIYWDHMLLDASQVTNPSIDPLREPMELRTYLGKKPHSIEVVRDEQTGKPKLATKLTPQIKMEYPFIFSAMSYGALNLNAHKAMAMAAKELGTLYNTGEGGLHRDLYQYGSNVMVQVASGRFGVSEAYLNAGVAIEIKVGQGAKPGIGGHLPGEKVNDQISETRMIPAGADAISPAPHHDIYSIEDLRQLIFALKEATNYTKPVSVKIAAVHHVAAIASGVARAGADIITIDGFRGGTGAAPQVIRDNVGIPMELALAAVDARLRDEGIRNQVSIVVGGGVRSSGDAIKAIALGADAINMGTSTLLALGCTLCQRCYTGKCPWGITTNNPYLAKRLNPELGAERLVNLVHAWGHEMKEILGGMGLNALESLRGNRYKLRALGLTEKDMNILGVMPAGE | failed
MHDTIPEYIRDGAQDMLAQGGVQKLGLKKEGGTWEIDGSIQSDDFQIYVSRISLTPSEHRASYVCNCSDSFSGVCRHVAATALKMLSTFDTRPGSDEPAKPRVEWRQSFRSFFSTALDPEPGKHYLIFRFHPEPGRLTVAFFRARQNKSGLSTVHNEITLEQIINNPEWCELSPQLVDVAKQVGQFVDYYGHRIEIPDGLVSWFFWAIRREYYLFWLDTESPCRIENTALGLKLHPRLGDDGLSFDVMLYREGKPPFSILGGENAATFHGQMPMWVCWNRSFYPVQTSLPPQLVQDLIRQHPSIPQEDMSEFLDRVWTRLPSSDLYGQEDFLKLMEPVFQPARYSPKLFLDEEGSLLTLEIQNVYETAHGEFYLAGPNPDFQTGSYTFEGTTFLIRRHQDEEAGLITQLSEMRFQPRSSRLWFLEPEEAIAFLLDAYPRLVEKYRVYGEKALSRYKVRLSQPVITAKVESNEEEKWFSLDIDVEYDGQKVPIDKIWKAWSQGKRYVQLKDGSYTSLPETWLERLGHKLQALGLDPDKPPQKQFKQFEAPVLDSLLDDLPGAETDSFWNSLRDKIRTFREIRAVNAPRGLNATLRGYQMQGLAYLNFLREYGFGGILADEMGLGKTVQTLSFVQHMVESGKIGPNLIVVPTSVLPNWEREAQKFVPELKRLIIYGTRREGMFKLIDESDLVVTTYALLRRDLEELQNHTFNCIILDEAQNIKNPNTITARSVRRIKADMRLCLSGTPIENNLFELWSLFEFLMPGFLGSQHAFQRGVIKPIKDGDCETLDYLRTRVRPFILRRTKSEVAKDLPPKIENTYYCALAEEQAELYTALARKLKEQVLADVDEKGLAKSQMSILDALLKLRQICCHPRLLKLDMPGFSTNLPSGKFDAFKDMITDIVEEGHKVLVFSQFVQMLHIIRSWLQISGTPFCYLDGTSKDRFEQVDKFNNSPDIPIFLISLKAGGTGLNLTSADYVIHYDPWWNPAVESQATDRTHRIGQTRQVFSYKLICQNTVEEKILKLQDMKRGVAEAIIPGQETWKSLTREDLEMLFDI | failed
MAPIFLEYKVVHDNITYYIIYVFIYNLSLKLVTMYTINPSSHTILNYNVSLEPEQIFSNITGVSTYYSLDGKKILAYEDNNGSIIVAYNGLILKKASNNSVRYLIAANYPGIDNSKFPSLYKLAEISIFDSNIRVLVLGVLLTILSSFILKVMVGRYDKVR | failed
MNALRKVGAVAWAAVGSLLLSGCEFNGWYDVQLPGGAAADGHAYHVTVEFRDVLDLVPQSAVKVNNVTVGAVEEVQLDGWHARVRLRVADSVKLPANAVAELRQTSMLGEKYVALSTPPGTAPVGRLGDGDRIPLSRSGRNPDIEEVLSALSALLNGGGVAQLKTITVELNKALDGREDRVRSLLKELNTFIGGLDGRRKDIIHALKAVDRLAGRLGKEKKTIAQAVDTMPPALKVLADQRRDLTRMLTALSKLGTTGTKVVNASHDDTVANLKQLRPILQQLNKAGADLPNSLELLTTYPFPRNAVDAVRGDYVNLDITADLDLSALYRNLAGGSDKSGGGNGESTQPETPDIPDLPDLPTVPTPTALPSAPSLPSSPSMPSAPSGGGGPLCPPVCTSSYTTRGEPPEGIDLALAELMLKGVQP | failed
GQDTGEDNLAIKGITTLNDLTMVNVSGPGMKGMVGMASRVFGAMSSAGVSIVLITQSSSEYSISFCIEADDKLKAQQVLADAFELELKDGLLEPVDFIDDVSIVTLVGDGMRTSRGVASRFFSSLAEVNVNIVAIAQGSSERAISAVIPEDKISEAIKACHENLFNSKYF | not failed
MQELSPAELGEQVQDDDGPLVLDIRHEEDFQEWHIPGSRNVDVYDELTDDPEQAIEPLDDLPSDEQIVTVCAAGVVSQTATAVLRELGYDAVTLTDGMNGWSRVHRHAELPVDVDGTLVQVARPGKGCLSHVLVSDGEAAVFDPSHYLNEYDTVLDEYDAELVGVFDTHAHADHVSGAADLADRHDVPYYLHQKDALAVDATPLEDGQTVTVGRLDIEVIHTPGHSEGSVSFDVEGAALLTGDTLFHDSVGRVELGVEAGIEDADVEGNAATLYESLQRLLDRPDDALVLPAHDPGSPEPPVAATLAEVRERNDDLGRDREAFVEELASDIPDHPPNFERVKRTNVGQESVPEEELAELELGPNNCAAE | failed
MSEPVIKSLLDTDMYKITMHAAVFTNFPDVTVTYKYTNRSSQLTFNKEAINWLKEQFSYLGNLRFTEEEIEYLKQEIPYLPSAYIKYISSSNYKLHPEEQISFTSEEIEGKPTHYKLKILVSGSWKDTILYEIPLLSLISEAYFKFVDIDWDYENQLEQAEKKAETLFDNGIRFSEFGTRRRRSLKAQDLIMQGIMKAVNGNPDRNKSLLLGTSNILFAKKYGVKPIGTVAHEWVMGVASISEDYLHANKNAMDCWINTFGAKNAGLALTDTFGTDDFLKSFRPPYSDAYVGVRQDSGDPVEYTKKISHHYHDVLKLPKFSKIICYSDSLNVEKAITYSHAAKENGMLATFGIGTNFTNDFRKKSEPQVKSEPLNIVIKLLEVNGNHAIKISDNLGKNMGDPATVKRVKEELGYTERSWSGDNEAHRWTZ | not failed
MTEEFNESMINDIKEGDKVTGEVQQVEDKQVVVHINGGKFNGIIPISQLSTHHIENPSEVVKVGDEVEAYVTKIEFDEENDTGAYILSKRQLETEKSYEYLQEKLDNDEVIEAEVTEVVKGGLVVDVGQRGFVPASLISTDFIEDFSVFDGQTIRIKVEELDPENNRVILSRKAVEQLENDAKKASILDSLNEGDVIDGKVARLTNFGAFINIGGVDGLVHVSELSHGTCSNTRRSCVSRLEHHHHHH | not failed
LRQSQQMLQLVMDTIPHSVFWKDRNSVFLGCNRNFAIMVGYEHPENLIGKTDYDFLPDPRNADLYRQCDARIIETNNPEYHIIEPMLAPDGQQIWLETNKVPLHDPEGNVVGVLGTFEDITERKQVQEA | failed
MDAAVTDDFQQILPIEQLRSTHASNDYVERPPAPCKQALSSPSLIVQTHKSDWSLATMPTSLPRSLSQCHQLQPLPQHLSQSSIASSMSHSTTASDQRLLASITPSPSGQSIIRTQPGAGVHPKADGALKGEAEQSAGHPSEHLFICEECGRCKCVPCTAARPLPSCWLCNQRCLCSAESLLDYGTCLCCVKGLFYHCSTDDEDNCADEPCSCGPSSCFVRWAAMSLISLFLPCLCCYLPTRGCLHLCQQGYDSLRRPGCRCKRHTNTVCRKISSGSAPFPKAQEKSV | failed
MAKNYDQLAKTIIKDVGGKDNVNSVVHCATRLRFKLKDEKKADDDALKNTDGVVTVVKAGGQYQVVIGNEVADVYDAVLKEGGFSGGGEVPDDYSEDDNSSFVDKAVALISGIFTDILAPLSAGGIIKGLVVLAAAMGWLSTSSGAYQILYAIGDSIFYFLPIFLGVTAARRFHMNQFIGLAIGATLTYPTMVQLAASKTVLGTLFAGTPFASQIHTTFFGIPVITMNYTSTVLPVLFAVWFASIIEHWSKKWIPSVVQMFLVPVVTMIITLPIAFIVIGPVMTWVGNAIGAVMSGIYHFSPIIAGLLLGGLWQVLVIFGVHWGIVAVTTADLAALGYDPILGMTCMVCYAQIGVVLAIIKQTKDKKLKENATGAFFSGLFGVTEPAIYGITLPRKRPFVLSCIAGAVSGAIIGAFHSVLYILPSMGFFAIPAYINPKGGSMTQIIGVIIAGVVAFIVGFALQMLFGKKSVDAKYDKKQTEKVEVNETLQTTPDVATATLASPENGQIMPLSEVKDDVFSSGAMGKGIAIEPSDGVLHAPADGKIIMTFKTGHAIGMKTKNGAEILMHIGMDTANLQGKGFDTLVEKDQKVKAGDPLIKFDIDLIKKAGYPVTTPMVVTNSQDFDDIKQIVKGEVKVGQAVLELEAPEAKDVTTSVNGQVQLN | failed
MTGHIDPTKEVFAQFRANDREGPIHMLNLVRLRPRAAYPDGRETTGAEAYAAYGRDSGPVFERLGGKVVWQGQFELMLIGPQDEHWDHVFIAEYPSVAAFVEMIRDPVYREAVKHRQAAVEDSRLIRLKPLKPGKGFGEIPT | not failed
